Starred links: 1 amine or outer side, 2 acyl side, 3 side chain; linkers in the order of their positions; H or OH if unused. Non-standard residues stand in square brackets, D forms with d. Groups on a side chain read outwards from the residue. No end group written: not given here. *: point of attachment. C18 diacid = O=C(O)CCCCCCCCCCCCCCCCC(=O)*; γGlu = O=C(O)[C@H](CCC(=O)[*:2])N[*:1]; 4Pal = N[C@@H](Cc1ccncc1)C(=O)O; αMeL = CC(C)C[C@](C)(N)C(=O)O; Dab = NCC[C@H](N)C(=O)O; AEEA = NCCOCCOCC(=O)O; Aib = CC(C)(N)C(=O)O
T1: human GIP receptor (human) (UniProt P48546)
T1 sequence (looked up): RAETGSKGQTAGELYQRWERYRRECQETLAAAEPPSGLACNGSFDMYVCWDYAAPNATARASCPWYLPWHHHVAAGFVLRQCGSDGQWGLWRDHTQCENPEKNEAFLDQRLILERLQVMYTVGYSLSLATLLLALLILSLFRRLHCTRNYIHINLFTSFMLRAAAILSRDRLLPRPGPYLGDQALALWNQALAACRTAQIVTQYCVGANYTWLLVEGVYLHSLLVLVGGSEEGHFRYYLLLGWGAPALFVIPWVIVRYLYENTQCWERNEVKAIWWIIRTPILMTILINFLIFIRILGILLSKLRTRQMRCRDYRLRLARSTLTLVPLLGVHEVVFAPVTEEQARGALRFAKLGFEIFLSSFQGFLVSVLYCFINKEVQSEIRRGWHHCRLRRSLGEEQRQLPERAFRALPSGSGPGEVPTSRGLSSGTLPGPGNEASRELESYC


Legend:
Test in all cases: cell-based or functional assay
[1] = target: human glucagon receptor (human) (UniProt P47871)
Chain of human glucagon receptor (human) (P47871 26-477): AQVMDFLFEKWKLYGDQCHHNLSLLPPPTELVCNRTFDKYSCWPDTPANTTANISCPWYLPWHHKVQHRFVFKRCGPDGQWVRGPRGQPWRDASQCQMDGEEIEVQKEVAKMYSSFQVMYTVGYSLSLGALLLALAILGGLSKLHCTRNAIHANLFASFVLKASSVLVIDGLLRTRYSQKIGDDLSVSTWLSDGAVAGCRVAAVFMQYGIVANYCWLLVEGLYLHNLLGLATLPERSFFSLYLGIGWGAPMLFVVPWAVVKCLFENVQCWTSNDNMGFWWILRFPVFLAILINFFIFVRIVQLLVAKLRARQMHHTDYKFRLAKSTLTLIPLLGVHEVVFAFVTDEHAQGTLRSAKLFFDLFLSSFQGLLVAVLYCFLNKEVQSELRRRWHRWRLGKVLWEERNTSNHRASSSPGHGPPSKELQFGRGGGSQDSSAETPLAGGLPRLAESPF

hGLP-1R = hGLP-1R (Homo sapiens, UniProt P43220)
Chain of hGLP-1R (P43220 24-463): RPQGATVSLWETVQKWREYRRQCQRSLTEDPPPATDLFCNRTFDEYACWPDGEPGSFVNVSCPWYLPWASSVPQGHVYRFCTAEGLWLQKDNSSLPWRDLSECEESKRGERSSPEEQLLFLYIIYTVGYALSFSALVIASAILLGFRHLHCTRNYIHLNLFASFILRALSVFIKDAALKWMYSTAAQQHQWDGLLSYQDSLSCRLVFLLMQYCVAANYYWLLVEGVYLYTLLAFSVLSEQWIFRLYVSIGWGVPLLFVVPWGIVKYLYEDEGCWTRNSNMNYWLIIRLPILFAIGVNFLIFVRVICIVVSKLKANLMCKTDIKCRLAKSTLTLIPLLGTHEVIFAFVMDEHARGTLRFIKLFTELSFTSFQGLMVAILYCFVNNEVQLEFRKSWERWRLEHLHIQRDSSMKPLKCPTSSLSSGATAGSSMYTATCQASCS

[2] = target: human GLP-1R (SNAP-GLP-1R expressed in HEK293 cells) (human) (UniProt P43220)
Chain of human GLP-1R (SNAP-GLP-1R expressed in HEK293 cells) (human) (P43220 24-463): as above

[3] = target: T1, human GIP receptor (human)

| Binder | Relative cAMP EC50, nM (0.1% casein) [1] [nM] | cAMP Rel EC50, nM (1% HSA) [1] [nM] | Relative cAMP EC50, nM (0.1% casein) (hGLP-1R) [nM] | cAMP Rel EC50, nM (1% HSA) (hGLP-1R) [nM] | GLP1R Internalization EC50 [2] [nM] | Internalization % TOP [2] [%] | Relative cAMP EC50, nM (0.1% casein) [3] [nM] | cAMP Rel EC50, nM (1% HSA) [3] [nM] | Relative cAMP EC50 [1] [nM] | Relative cAMP EC50 (hGLP-1R) [nM] | Relative cAMP EC50 [3] [nM] |
| --- | --- | --- | --- | --- | --- | --- | --- | --- | --- | --- | --- |
| YXQGTFTSDXSRXLDKKAQXAFIEYLIEXGESSGAPPPSGS (synthetic construct; SITE 2: note = 2-Aminoisobutyric Acid; SITE 10: note = 3-(4-Pyridyl)-L-alanine; SITE 13: note = alpha-methyl-leucine; SITE 17: note = Lysine is chemically modified through conjugation of the epsilon-amino group of the Lysine side chain with (2-[2-(2-Amino-ethoxy)-ethoxy]-acetyl)) [Example 187] | 14.8 | 2970 | 1.11 | 178 | 17.2 | 57 | 0.111 | 15.6 | – | – | – |
| Y[Aib]QGTFTSD[4Pal]S[Dab][αMeL]LDKK([AEEA-γGlu-C18 diacid])AQ[Aib]AFIEYLIE[Aib]GESSGAPPPSGS-NH2 [Example 188] | 10.8 | 2920 | 3.43 | 436 | 44.7 | 40.2 | 0.193 | 43.8 | – | – | – |
| YXQGTFTSDFSXXLDKKAQXAFIEYLLEXGXSSGAPPPSGE (synthetic construct; SITE 2: note = 2-Aminoisobutyric Acid; SITE 12: note = L-ornithine; SITE 13: note = alpha-methyl-leucine; SITE 17: note = Lysine is chemically modified through conjugation of the epsilon-amino group of the Lysine side chain with (2-[2-(2-Amino-ethoxy)-ethoxy]-acetyl)2-(gamma-Glu)) [Example 189] | 6.28 | 853 | 4.46 | 423 | 103 | 45.8 | 0.0695 | 22.2 | – | – | – |
| YXQGTFTSDFSXXLDKKAQXAFIEYLLEXGPSSGAPPPSGS (synthetic construct; SITE 2: note = 2-Aminoisobutyric Acid; SITE 12: note = L-ornithine; SITE 13: note = alpha-methyl-leucine; SITE 17: note = Lysine is chemically modified through conjugation of the epsilon-amino group of the Lysine side chain with (2-[2-(2-Amino-ethoxy)-ethoxy]-acetyl)-(gamma-Glu)) [Example 192] | 4.18 | 560 | 9.77 | 719 | 115 | 48.7 | 0.142 | 9.86 | – | – | – |
| YXQGTFTSDFSXXLDKKAQXAFIEYLLEXGPSSGAPPPSGT (acylated lipid side chain; synthetic construct; SITE 2: note = 2-Aminoisobutyric Acid; SITE 12: note = L-ornithine; SITE 13: note = alpha-methyl-leucine; SITE 17: note = Lysine is chemically modified through conjugation of the epsilon-amino group of the Lysine side chain with (2-[2-(2-Amino-ethoxy)-ethoxy]-acetyl)-(gamma-Glu)) [Example 200] | – | 360 | – | 395 | 86.1 | 39.2 | – | 13.7 | 2.83 | 3.19 | 0.0739 |
| YXQGTFTSDFSXXLDKKAQXAFIEYLLEAGPSSGAPPPSGT (not fully specified; acylated; synthetic construct; SITE 2: note = 2-Aminoisobutyric Acid; SITE 12: note = L-ornithine; SITE 13: note = alpha-methyl-leucine; SITE 17: note = Lysine is chemically modified through conjugation of the epsilon-amino group of the Lysine side chain with (gamma-Glu)2-CO-(CH2)16-CO2H; SITE 20: note = 2-Am) [Example 204] | – | 572 | – | 306 | 66.4 | 45.5 | – | 16.7 | 6.92 | 2.34 | 0.181 |
| YXQGTFTSDFSXXLDKKAQXAFIEYLLEAGPSSGAPPPSGT (not fully specified; acylated; synthetic construct; SITE 2: note = 2-Aminoisobutyric Acid; SITE 12: note = L-ornithine; SITE 13: note = alpha-methyl-leucine; SITE 17: note = Lysine is chemically modified through conjugation of the epsilon-amino group of the Lysine side chain with (gamma-Glu)3-CO-(CH2)16-CO2H; SITE 20: note = 2-Am) [Example 205] | – | 397 | – | 234 | 49.4 | 67.7 | – | 24.4 | 8.98 | 2.71 | 0.16 |
| YXQGTFTSDFSXXLDKKAQXAFIEYLLEAGPSSGAPPPSGS (Aib, Orn, αMeL, D-Ala, acylated Lys, C-terminal amide; synthetic construct; SITE 2: note = 2-Aminoisobutyric Acid; SITE 12: note = L-ornithine; SITE 13: note = alpha-methyl-leucine; SITE 17: note = Lysine is chemically modified through conjugation of the epsilon-amino group of the Lysine side chain with (2-[2-(2-Amino-ethoxy)-ethoxy]-acetyl)-(gamma-Glu)) [Example 209] | – | – | – | – | 83.1 | 41.2 | – | – | 3.08 | 1.78 | 0.129 |
| YXQGTFTSDFSXXLDKKAQXAFIEYLLEAGPSSGAPPPSGX (acylated; synthetic construct; SITE 2: note = 2-Aminoisobutyric Acid; SITE 12: note = L-ornithine; SITE 13: note = alpha-methyl-leucine; SITE 17: note = Lysine is chemically modified through conjugation of the epsilon-amino group of the Lysine side chain with (2-[2-(2-Amino-ethoxy)-ethoxy]-acetyl)-(gamma-Glu)) [Example 211] | – | 370 | – | 234 | 57.4 | 26.9 | – | 20.6 | 2.05 | 1.23 | 0.116 |
| YXQGTFTSDFSXXLDKKAQXAFIEYLLEAGPSSGAPPPSGS (Aib, Orn, αMeL, D-Ala; acylated Lys; synthetic construct; SITE 2: note = 2-Aminoisobutyric Acid; SITE 12: note = L-ornithine; SITE 13: note = alpha-methyl-leucine; SITE 17: note = Lysine is chemically modified through conjugation of the epsilon-amino group of the Lysine side chain with (2-[2-(2-Amino-ethoxy)-ethoxy]-acetyl)-(gamma-Glu)) [Example 212] | – | – | – | – | 79.7 | 43 | – | – | 3.74 | 1.35 | 0.13 |

From patent US20240270821A1, “GIP/GLP1/GCG TRI-RECEPTOR AGONISTS AND USES THEREOF” (priority 2023, published 2024)
